Experimental findings from US20250282857A1, “TGF-BETA INHIBITORS AND USE THEREOF” (SCHOLAR ROCK, INC., priority 2021, published 2025) are described below.

B1: Ab21 (antibody, V domains shown)
VH: EVQLVESGGGLVQPGGSLRLSCAASGFTFSSFSMDWVRQAPGKGLEWVSYISPDASTIYYADSVKGRFTISRDNAKNSLYLQMNSLRAEDTAVYYCARGVLDYGDMLDPWGQGTLVTVSS
VL: DIQMTQSPSSLSASVGDRVTITCQASQDITNYLNWYQQKPGKAPKLLIYDASNLETGVPSRFSGSGSGTDFTFTISSLQPEDIATYYCQQADNHPPWTFGGGTKVEIK
B2: Ab26 (antibody, IgG4, V domains shown)
VH: B1 VH with S78T
VL: B1 VL
B3: Ab29 (antibody, IgG4, V domains shown)
VH: B1 VH with G16R, S33A, D35N, D62G, A97V, G99A
VL: B1 VL
B4: Ab24 (antibody, IgG4, V domains shown)
VH: B1 VH with G16R, S33A, D35Y
VL: B1 VL
B5: Ab25 (antibody, V domains shown)
VH: B1 VH with S30G
VL: B1 VL
B6: Ab27 (antibody, V domains shown)
VH: B1 VH with S31F, F32Y, S33A, D35N
VL: B1 VL
B7: Ab23 (antibody, V domains shown)
VH: B1 VH with D35N, D54S, S56D, S78T
VL: B1 VL
B8: Ab31 (antibody, IgG4, V domains shown)
VH: B1 VH with S78T, G99A
VL: B1 VL
B9: Ab28 (antibody, V domains shown)
VH: B1 VH with A97V
VL: B1 VL
B10: Ab33 (antibody, IgG4, V domains shown)
VH: B1 VH with D35N, D54S, S56D, S78T, R98H
VL: B1 VL
B11: Ab22 (antibody, IgG4, V domains shown)
VH: B1 VH with S30G, D35N, S52H, P53S
VL: B1 VL
B12: Ab32 (antibody, IgG4, V domains shown)
VH: B1 VH with D35N, D54S, S56D, S78T, L101W, Y103M
VL: B1 VL
B13: Ab30 (antibody, IgG4, V domains shown)
VH: B1 VH with V100T
VL: B1 VL
B14: Ab4 (antibody, IgG4, V domains shown)
VH: B1 VH with F32Y, D35N, P53S, D54S, A55S
VL: B1 VL

Substitutions are numbered along the chain they refer to.

The target of one assay is Cell-associated proTGFβ1 complexes (hGARP-proTGFβ1 and hLRRC33-proTGFβ1). Briefly: BLI (Octet).
Conditions: not given
Molecule B1 had a Cell AVRG (average KD, hGARP and hLRRC33 complexes) of 0.644 nM.

With B2, the Cell AVRG (average KD, hGARP and hLRRC33 complexes) worked out at 0.492 nM.

In turn, B3 had a Cell AVRG (average KD, hGARP and hLRRC33 complexes) of 0.304 nM.

With B4, the Cell AVRG (average KD, hGARP and hLRRC33 complexes) stood at 0.537 nM.

B5 gave a Cell AVRG (average KD, hGARP and hLRRC33 complexes) of 0.449 nM.

Regarding B6, the Cell AVRG (average KD, hGARP and hLRRC33 complexes) was 0.361 nM.

Consider B7, for which the Cell AVRG (average KD, hGARP and hLRRC33 complexes) is 0.897 nM.

B8: the Cell AVRG (average KD, hGARP and hLRRC33 complexes) was 0.495 nM.

For B9, the Cell AVRG (average KD, hGARP and hLRRC33 complexes) came out at 0.603 nM.

In turn, B10 showed a Cell AVRG (average KD, hGARP and hLRRC33 complexes) of 0.302 nM.

As to B11, the Cell AVRG (average KD, hGARP and hLRRC33 complexes) was 0.695 nM.

The molecule B12 showed a Cell AVRG (average KD, hGARP and hLRRC33 complexes) of 0.597 nM.

As to B13, the Cell AVRG (average KD, hGARP and hLRRC33 complexes) came to 0.684 nM.

For a further assay, the target named is Matrix-associated proTGFβ1 complexes (hLTBP1-proTGFβ1 and hLTBP3-proTGFβ1). The assay is described as follows: BLI (Octet).
Conditions: not given
As for B1, the ECM AVRG (average KD, hLTBP1 and hLTBP3 complexes) was found to be 0.246 nM.

In the case of B2, the ECM AVRG (average KD, hLTBP1 and hLTBP3 complexes) came out at 0.197 nM.

On to B3, for which the ECM AVRG (average KD, hLTBP1 and hLTBP3 complexes) was 0.155 nM.

With B4, the ECM AVRG (average KD, hLTBP1 and hLTBP3 complexes) stood at 0.222 nM.

As to B5, the ECM AVRG (average KD, hLTBP1 and hLTBP3 complexes) amounted to 0.184 nM.

The molecule B6 yielded an ECM AVRG (average KD, hLTBP1 and hLTBP3 complexes) of 0.208 nM.

Turning to B7, the ECM AVRG (average KD, hLTBP1 and hLTBP3 complexes) stood at 0.443 nM.

Consider B8, for which the ECM AVRG (average KD, hLTBP1 and hLTBP3 complexes) turned out to be 0.208 nM.

B9 gave an ECM AVRG (average KD, hLTBP1 and hLTBP3 complexes) of 0.328 nM.

B10 displayed an ECM AVRG (average KD, hLTBP1 and hLTBP3 complexes) of 0.145 nM.

Turning to B11, the ECM AVRG (average KD, hLTBP1 and hLTBP3 complexes) was 0.324 nM.

B12 had an ECM AVRG (average KD, hLTBP1 and hLTBP3 complexes) of 0.242 nM.

In turn, B13 showed an ECM AVRG (average KD, hLTBP1 and hLTBP3 complexes) of 0.296 nM.

The target in the next assay is Cell-associated proTGFβ1 complexes (hGARP-proTGFβ1 and hLRRC33-proTGFβ1). The assay is described as follows: MSD-SET, hIgG4.
Conditions: not given
Molecule B2 yielded a Cell AVRG (average KD, hGARP and hLRRC33 complexes) of 0.072 nM.

As for B3, the Cell AVRG (average KD, hGARP and hLRRC33 complexes) is 0.024 nM.

On to B4, for which the Cell AVRG (average KD, hGARP and hLRRC33 complexes) amounted to 0.1 nM.

Consider B8, for which the Cell AVRG (average KD, hGARP and hLRRC33 complexes) stood at 0.058 nM.

B10 returned a Cell AVRG (average KD, hGARP and hLRRC33 complexes) of 0.027 nM.

In turn, B11 yielded a Cell AVRG (average KD, hGARP and hLRRC33 complexes) of 0.114 nM.

With B12, the Cell AVRG (average KD, hGARP and hLRRC33 complexes) was determined as 0.051 nM.

For B13, the Cell AVRG (average KD, hGARP and hLRRC33 complexes) is 0.081 nM.

In the case of B14, the Cell AVRG (average KD, hGARP and hLRRC33 complexes) worked out at 2.3 nM.

The target of the next assay is Matrix-associated proTGFβ1 complexes (hLTBP1-proTGFβ1 and hLTBP3-proTGFβ1). Briefly: MSD-SET, hIgG4.
Conditions: not given
As for B2, the ECM AVRG (average KD, hLTBP1 and hLTBP3 complexes) was found to be 0.026 nM.

Turning to B3, the ECM AVRG (average KD, hLTBP1 and hLTBP3 complexes) was 0.012 nM.

The molecule B4 yielded an ECM AVRG (average KD, hLTBP1 and hLTBP3 complexes) of 0.023 nM.

With B8, the ECM AVRG (average KD, hLTBP1 and hLTBP3 complexes) was 0.017 nM.

For the molecule B10, the ECM AVRG (average KD, hLTBP1 and hLTBP3 complexes) came to 0.009 nM.

The molecule B11 showed an ECM AVRG (average KD, hLTBP1 and hLTBP3 complexes) of 0.042 nM.

As to B12, the ECM AVRG (average KD, hLTBP1 and hLTBP3 complexes) stood at 0.032 nM.

The molecule B13 had an ECM AVRG (average KD, hLTBP1 and hLTBP3 complexes) of 0.029 nM.

As for B14, the ECM AVRG (average KD, hLTBP1 and hLTBP3 complexes) worked out at 5.05 nM.

The next assay relates to matrix-associated vs cell-associated proTGFβ1 complexes. The assay is described as follows: MSD-SET: fold bias, cell average over matrix average. It is filed as binding, human. The following applies: ratio of average KD. From the text: Column (A) of the table lists monoclonal antibodies with discrete amino acid sequences. […] Columns (B), (D), (E) and (F) provide affinities of each of the listed antibodies, measured in KD. […] Average KD values of (B) and (C) are shown in the corresponding column (D), which collectively represents affinities of the antibodies to ECM- or matrix-associated proTGFβ1 complexes. Similarly, Average KD values of (E) and (F) are shown in the corresponding column (G), which collectively represents affinities of the antibodies to cell-surface or cell-associated proTGFβ1 complexes. Finally, relative ratios between the average KD values from columns (D) and (G) are expressed as “fold bias” in column (H). Thus, the greater the number of column (H) is, the greater bias exists for the particular antibody, when comparing binding preferences of the antibody for matrix-associated complexes and cell-surface complexes. This is one way of quantitatively representing and comparing inherent bias of antibodies to their target complexes. Such analyses may be useful in guiding the selection process for a candidate antibody for particular therapeutic use.
Solution equilibrium titration (“SET”) is an assay whereby binding between two molecules (such as an antigen and an antibody that binds the antigen) can be measured at equilibrium in a solution. […]
Regarding B14, the “(H) G/D (fold bias)” value turned out to be 0.42 fold.
